The source of these data is US12428446B2, “Peptide compound or pharmaceutically acceptable salt thereof” (Eyebio Korea, priority 2019, dated 2025).

The data set can be described thus: Evaluation of dissolution stability (content change on storage in dissolved state). It is filed as physicochemical. The conditions noted are these: 1 mg/1 ml dissolved state, 40° C. and RH 75%.

*1 amine or outer side, *2 acyl side, *3 side chain or, on linkers, in order; H or OH if unused. Primed or numbered codes have the meaning given here. Where no end group is shown, it is not given here. [ ]: non-standard residue; d: D form. The star is where a group is joined. Pro(trans-4-NH2) = O=C([C@@H]1C[C@@H](N[*:3])CN1[*:1])[*:2]; Pro(4-methylene) = C=C1CN[C@H](C(=O)O)C1; Pro(4,4-F2) = O=C(O)[C@@H]1CC(F)(F)CN1; Pro(4,4-Me2) = CC1(C)CN[C@H](C(=O)O)C1; Asu′ = aspartimide (aminosuccinimide); Hyp = O=C(O)[C@@H]1C[C@@H](O)CN1; dHyp = O=C(O)[C@H]1C[C@H](O)CN1; Aib = CC(C)(N)C(=O)O; OiPr = CC(C)O*

Regarding [dHyp]GQDG [Example 40], the “Day 1 content (%)” value amounted to 81.96%, the “Day 3 content (%)” value is recorded as 70.04%, the “Day 7 content (%)” value came out at 51.11% and the “Initial content (%)” value is reported as 89.95%.
The matching figures for “Hyp-Gly-Gln-Asu-Gly-Leu-Ala (isopropyl ester) [Example 113]”: 92.40%, 85.41%, 72.35% and 93.25%.
Regarding “Hyp-Gly-Gln-Aib-Gly-Leu ([Hyp]GQ[Aib]GL) [Example 84]”, the “Day 1 content (%)” value was found to be 97.91%, the “Day 3 content (%)” value came to 97.29%, the “Day 7 content (%)” value was determined as 96.49% and the “Initial content (%)” value was found to be 97.78%.
The matching figures for “Hyp-Gly-Gln-Asp-Gly-D Leu ([Hyp]GQDG[dL]) [Example 62]”: 92.60%, 84.99%, 70.41% and 97.24%.
The matching figures for “Hyp-Gly-Gln-Asp-Ala-Leu-Ala ([Hyp]GQDALA) [Example 39]”: 91.76%, 88.16%, 85.50% and 93.03%.
The matching figures for “Hyp-Gly-Gln-Leu-Gly-Leu-Ala-Gly ([Hyp]GQLGLAG) [Example 17]”: 96.53%, 96.69%, 96.27% and 96.55%.
As for “Hyp-Val-Gln-Asp-Gly ([Hyp]VQDG) [Example 74]”, the “Day 1 content (%)” value came out at 92.95%, the “Day 3 content (%)” value was 85.57%, the “Day 7 content (%)” value is on record as 79.66% and the “Initial content (%)” value stood at 98.01%.
The matching figures for “Hyp-Gly-Gln-Asp-Gly-Leu-D Ala ([Hyp]GQDGL[dA]) [Example 66]”: 89.15%, 79.64%, 60.49% and 96.42%.
“trans-4NH2-Pro-Gly-Gln-Asp-Gly-Leu ([Pro(trans-4-NH2)]GQDGL) [Example 47]”: the “Day 1 content (%)” value amounted to 84.03%, the “Day 3 content (%)” value is given as 75.02%, the “Day 7 content (%)” value worked out at 51.42% and the “Initial content (%)” value is given as 94.90%.
For “Hyp-Gly-Gln-Ala-Leu-Leu ([Hyp]GQALL) [Example 123]”, the “Day 1 content (%)” value was 99.14%, the “Day 3 content (%)” value stood at 98.98%, the “Day 7 content (%)” value turned out to be 98.86% and the “Initial content (%)” value stood at 99.26%.
As to “Hyp-Gly-Gln-Glu-Gly-Leu-Ala ([Hyp]GQEGLA) [Example 69]”, the “Day 1 content (%)” value was 96.94%, the “Day 3 content (%)” value came to 96.32%, the “Day 7 content (%)” value is listed as 95.69% and the “Initial content (%)” value is 97.12%.
The matching figures for “Hyp-Leu-Gln-Asp-Gly ([Hyp]LQDG) [Example 75]”: 91.10%, 75.24%, 61.06% and 98.53%.
Turning to “trans-4NH2-Pro-Gly-Gln-Asp-Gly-Leu-Ala ([Pro(trans-4-NH2)]GQDGLA) [Example 52]”, the “Day 1 content (%)” value is listed as 86.35%, the “Day 3 content (%)” value is on record as 74.65%, the “Day 7 content (%)” value is on record as 54.51% and the “Initial content (%)” value is 96.55%.
With GQDGLA [Example 29], the “Day 1 content (%)” value stood at 93.74%, the “Day 3 content (%)” value is recorded as 92.16%, the “Day 7 content (%)” value is 90.82% and the “Initial content (%)” value worked out at 95.19%.
For “4,4-difluoro-Pro-Gly-Gln-Asp-Gly-Leu ([Pro(4,4-F2)]GQDGL) [Example 48]”, the “Day 1 content (%)” value is reported as 84.40%, the “Day 3 content (%)” value is recorded as 76.53%, the “Day 7 content (%)” value worked out at 53.82% and the “Initial content (%)” value was 92.71%.
As to “Hyp-Gly-Leu-Ala-Gly-Pro-Lys ([Hyp]GLAGPK) [Example 27]”, the “Day 1 content (%)” value came to 98.16%, the “Day 3 content (%)” value is given as 98.15%, the “Day 7 content (%)” value is 98.16% and the “Initial content (%)” value is on record as 98.24%.
Take “Hyp-Gly-Gln-Glu-Aib-Leu-Ala ([Hyp]GQE[Aib]LA) [Example 92]”: the “Day 1 content (%)” value was found to be 97.05%, the “Day 3 content (%)” value is reported as 96.92%, the “Day 7 content (%)” value is reported as 96.56% and the “Initial content (%)” value amounted to 96.92%.
For the substance “Hyp-Gly-Gln-Leu-Leu ([Hyp]GQLL) [Example 121]”, the “Day 1 content (%)” value turned out to be 99.29%, the “Day 3 content (%)” value turned out to be 99.13%, the “Day 7 content (%)” value came out at 99.22% and the “Initial content (%)” value was determined as 99.39%.
The matching figures for “Hyp-Gly-Gln-Asp-Val-Leu [Example 22] ([Hyp]GQDVL)”: 85.47%, 83.10%, 82.67% and 88.14%.
As to “4-methylene-Pro-Gly-Gln-Asp-Gly-Leu ([Pro(4-methylene)]GQDGL) [Example 49]”, the “Day 1 content (%)” value was 86.53%, the “Day 3 content (%)” value turned out to be 79.49%, the “Day 7 content (%)” value is reported as 60.01% and the “Initial content (%)” value is given as 94.35%.
The matching figures for “Hyp-Gly-Gln-Asp-Gly-Val-Ala ([Hyp]GQDGVA) [Example 72]”: 95.91%, 90.84%, 82.07% and 97.08%.
The matching figures for “Leu-Ala-Gly-Pro-Lys (LAGPK) [Example 25]”: 85.76%, 81.09%, 77.40% and 89.14%.
The matching figures for “Hyp-Gly-Gln-Leu-Val ([Hyp]GQLV) [Example 95]”: 98.62%, 98.10%, 97.78% and 98.64%.
For “Hyp-Gly-Gln-Asp-Gly-Leu-Ala ([Hyp]GQDGLA) [Example 12]”, the “Day 1 content (%)” value is given as 89.90%, the “Day 3 content (%)” value turned out to be 79.04%, the “Day 7 content (%)” value came to 58.75% and the “Initial content (%)” value is 95.31%.
The matching figures for “Hyp-Gly-Gln-Asp (isopropyl ester)-Gly (isopropyl ester) [Example 110]”: 85.18%, 72.44%, 91.84% and 98.00%.
The matching figures for “Hyp-Gly-Gln-Asu-Gly ([Hyp]GQ[Asu′]G) [Example 100]”: 93.43%, 85.30%, 74.12% and 97.58%.
Regarding “Hyp-Gly-Gln-Glu-Gly-Leu ([Hyp]GQEGL) [Example 68]”, the “Day 1 content (%)” value is recorded as 98.25%, the “Day 3 content (%)” value came out at 97.51%, the “Day 7 content (%)” value amounted to 96.93% and the “Initial content (%)” value was determined as 98.71%.
The matching figures for “Hyp-Gly-Gln-Asp (isopropyl ester)-Gly-Leu ([Hyp]GQD(OiPr)GL) [Example 116]”: 85.82%, 84.31%, 83.50% and 88.64%.
In the case of [Hyp]GQ[dD]GLA [Example 64], the “Day 1 content (%)” value is reported as 91.62%, the “Day 3 content (%)” value stood at 86.18%, the “Day 7 content (%)” value is reported as 48.37% and the “Initial content (%)” value came to 96.19%.
Consider “Hyp-Gly-Gln-Asp-Ala-Leu ([Hyp]GQDAL) [Example 36]”, for which the “Day 1 content (%)” value is 94.13%, the “Day 3 content (%)” value is 90.58%, the “Day 7 content (%)” value came out at 85.95% and the “Initial content (%)” value is recorded as 95.40%.
For the substance “Hyp-Gly-Gln-Glu-Phenyl Gly-Leu-Ala [Example 94]”, the “Day 1 content (%)” value amounted to 98.77%, the “Day 3 content (%)” value amounted to 98.43%, the “Day 7 content (%)” value was found to be 98.15% and the “Initial content (%)” value is reported as 98.59%.
The matching figures for “Hyp-Gly-Gln-His-Gly-Leu-Ala ([Hyp]GQHGLA) [Example 80]”: 97.18%, 97.13%, 97.07% and 98.44%.
For the substance “Hyp-Gly-Gln-Asp-Val-Leu-Ala-Gly ([Hyp]GQDVLAG) [Example 24]”, the “Day 1 content (%)” value came to 96.14%, the “Day 3 content (%)” value came out at 95.71%, the “Day 7 content (%)” value stood at 95.13% and the “Initial content (%)” value amounted to 96.57%.
As for “Hyp-Gly-Gln-Asp-Val-Leu [Example 34] ([Hyp]GQDVL)”, the “Day 1 content (%)” value came out at 97.05%, the “Day 3 content (%)” value was determined as 95.50%, the “Day 7 content (%)” value was found to be 91.59% and the “Initial content (%)” value came to 97.18%.
In the case of “4,4-dimethyl Pro-Gly-Gln-Asp-Gly-Leu ([Pro(4,4-Me2)]GQDGL) [Example 56]”, the “Day 1 content (%)” value came to 84.52%, the “Day 3 content (%)” value stood at 79.98%, the “Day 7 content (%)” value was found to be 51.41% and the “Initial content (%)” value came out at 90.94%.
Regarding “Hyp-Gly-Gln-Asp-Gly-D Leu-Ala ([Hyp]GQDG[dL]A) [Example 65]”, the “Day 1 content (%)” value stood at 92.97%, the “Day 3 content (%)” value was 86.96%, the “Day 7 content (%)” value turned out to be 75.40% and the “Initial content (%)” value was 95.64%.
The matching figures for “Hyp-Gly-Gln-Asp-Gly-Leu (isopropyl ester) [Example 107]”: 76.34%, 65.41%, 58.41% and 87.55%.
